B1: DX-2400: exemplary MMP-14 antibody; VH SEQ ID NO: 22, VL SEQ ID NO: 23; shares HC and LC CDRs with M0038-F01 (antibody, V domains shown)
VH: EVQLLESGGGLVQPGGSLRLSCAASGFTFSLYSMNWVRQAPGKGLEWVSSIYSSGGSTLYADSVKGRFTISRDNSKNTLYLQMNSLRAEDTAVYYCARGRAFDIWGQGTMVTVSS
VL: DIQMTQSPSSLSASVGDRVTITCRASQSVGTYLNWYQQKPGKAPKLLIYATSNLRSGVPSRFSGSGSGTDFTLTISSLQPEDFATYYCQQSYSIPRFTFGPGTKVDIK
notes: exemplary MMP-14 antibody; shares HC and LC CDRs with M0038-F01
B2: 539A-M0240-B03: exemplary MMP-9 antibody; LC CDRs SEQ ID NO: 14-16, HC CDRs SEQ ID NO: 17-19 (antibody, V domains shown)
VL: QYELTQPRSVSGSPGQSVTISCTGTSSDVGGYNYVSWYQQHPGKAPKLMIYDVSKRPSGVPDRFSGSKSGNTASLTISGLQAEDEADYYCCSYAGSYTLVFGGGTKLTVL
VH: EVQLLESGGGLVQPGGSLRLSCAASGFTFSTYQMVWVRQAPGKGLEWVSVIYPSGGPTVYADSVKGRFTISRDNSKNTLYLQMNSLRAEDTAVYYCARGEDYYDSSGPGAFDIWGQGTMVTVSS

What was measured:
Raw 264.7 cells = test: Osteoclastogenesis (TRAP staining) and bone resorption (pits) on osteologic slides, RANK ligand-stimulated; type: cell-based, Mouse; details: Raw 264.7 cells + 100 ng/ml murine soluble RANK ligand, 6 days; GM6001 5, 10, 25 μM; 539A-M0240-B03 10, 50 μg/ml; 539A-M0237-D02 10, 100 μg/ml; dose-dependent; data not shown
Description: Cells. […] Cells between passage 3-7 were used in this study.
Materials. […] Tartrate-resistant acid phosphatase (TRAP) staining kit was obtained from KAMIYA BIOMEDICA COMPANY™, Seattle Wash. (Catalog #KT-008). GM6001 was obtained from MILLIPORE™.
Methods. Approximately 2000 Raw 264.7 cells per slide were seeded onto osteologic multitest slides with complete growth medium. […] The slides were then incubated at 37° C. for 6 days, replacing fresh media on day 3 as described above. At the end of incubation time, one side of the slide was stained for TRAP and the other side of the slide was bleached (10% bleach), washed several times with water, and air dried. The slides were then viewed under the microscope for either multinucleated TRAP positive cells or resorbed areas (pits). Cells incubated with media only and recombinant osteoprotegerin (rH OPG) (100 ng/ml) served as negative and positive controls, respectively.

[1] = test system: PC-3 prostate cancer cells; test: PC-3 prostate cancer model, intra-tibial inoculation, osteolytic lesions; type: in vivo; details: mice, intra-tibial PC-3 cells; 10 mg/kg Q2D for 14 days, started 3 days after inoculation; vs PBS control; X-ray and bone histomorphometric analysis
Description: PC-3 prostate cancer cells were inoculated intra-tibially into mice. Treatment was initiated 3 days after intra-tibial inoculation of the cells. DX-2400 (10 mg/kg) and a PBS control were administered Q2D for 14 days.

MMP-14 = MMP-14 (Homo sapiens, UniProt P50281); test: MMP-14 inhibition (statement, no method given); type: biochemical
MMP-9 [2] = target: T1, MMP-9 (Homo sapiens, UniProt P14780); test: MMP-9 inhibition, selectivity (statement, no method given); type: biochemical
Target sequence in this assay (P14780 94-707, species assumed): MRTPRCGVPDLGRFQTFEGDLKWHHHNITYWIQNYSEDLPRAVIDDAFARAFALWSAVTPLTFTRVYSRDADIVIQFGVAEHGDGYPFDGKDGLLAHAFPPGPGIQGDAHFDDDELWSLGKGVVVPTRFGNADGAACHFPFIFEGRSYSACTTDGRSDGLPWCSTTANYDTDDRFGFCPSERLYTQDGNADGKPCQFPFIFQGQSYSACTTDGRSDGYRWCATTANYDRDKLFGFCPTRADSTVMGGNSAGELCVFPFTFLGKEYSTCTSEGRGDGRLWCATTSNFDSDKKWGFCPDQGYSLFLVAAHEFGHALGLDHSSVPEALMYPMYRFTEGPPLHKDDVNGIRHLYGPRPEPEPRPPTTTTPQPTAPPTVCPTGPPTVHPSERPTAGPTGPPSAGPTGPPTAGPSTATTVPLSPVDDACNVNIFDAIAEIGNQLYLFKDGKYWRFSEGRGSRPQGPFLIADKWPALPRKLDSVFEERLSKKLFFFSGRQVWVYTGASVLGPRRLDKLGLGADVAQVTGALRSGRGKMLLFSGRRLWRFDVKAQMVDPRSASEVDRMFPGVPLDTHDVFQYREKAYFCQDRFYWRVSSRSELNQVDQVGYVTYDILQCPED

MMP-9 [3] = target: T1, MMP-9; test: Inhibition of human MMP-9 activity (statement, no method given); type: biochemical
Target sequence in this assay (P14780 94-707): as the sequence (P14780 94-707, species assumed) above

mouse MMP-9 = mouse MMP-9 (Mus musculus, UniProt P41245); test: Inhibition of mouse MMP-9 activity (statement, no method given); type: biochemical
Sequence of mouse MMP-9 (P41245 108-730): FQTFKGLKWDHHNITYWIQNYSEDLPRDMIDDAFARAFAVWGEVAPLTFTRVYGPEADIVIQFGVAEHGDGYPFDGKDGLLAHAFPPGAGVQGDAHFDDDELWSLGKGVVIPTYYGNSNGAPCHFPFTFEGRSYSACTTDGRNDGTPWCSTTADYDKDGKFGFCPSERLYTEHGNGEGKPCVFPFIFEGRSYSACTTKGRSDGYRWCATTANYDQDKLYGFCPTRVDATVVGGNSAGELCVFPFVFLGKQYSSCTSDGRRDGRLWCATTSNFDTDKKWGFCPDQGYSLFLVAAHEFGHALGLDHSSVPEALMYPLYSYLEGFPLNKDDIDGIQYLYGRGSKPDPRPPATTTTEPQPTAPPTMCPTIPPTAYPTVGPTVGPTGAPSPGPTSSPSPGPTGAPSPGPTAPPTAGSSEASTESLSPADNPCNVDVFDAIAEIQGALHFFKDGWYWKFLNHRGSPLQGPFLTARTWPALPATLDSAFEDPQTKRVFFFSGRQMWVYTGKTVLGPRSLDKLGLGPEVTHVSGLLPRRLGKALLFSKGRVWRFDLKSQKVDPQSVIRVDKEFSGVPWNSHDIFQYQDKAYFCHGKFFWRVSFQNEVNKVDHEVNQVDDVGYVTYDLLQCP

| Molecule | effect on bone resorption (number of resorbed areas, pits) (Raw 264.7 cells) | effect on osteoclastogenesis (TRAP-positive staining) (Raw 264.7 cells) | reduction of the area of the osteolytic lesions [1] | selectivity of MMP-14 inhibition (MMP-14) | selectivity of MMP-9 inhibition (MMP-9 [2]) | effect on activity of human MMP-9 (MMP-9 [3]) | effect on activity of mouse MMP-9 (mouse MMP-9) |
| --- | --- | --- | --- | --- | --- | --- | --- |
| CNC(=O)[C@H](Cc1c[nH]c2ccccc12)NC(=O)[C@@H](CC(=O)NO)CC(C)C [GM6001, reference compound] | inhibitory effects | inhibitory effects | – | – | – | – | – |
| B1 | – | – | about 3 fold | selective inhibitor of MMP-14 | – | – | – |
| B2 | inhibitory effects | inhibitory effects | – | – | selective inhibitor of MMP-9 | can decrease or inhibit the activity | can decrease or inhibit the activity |

From patent US8501181B2, “Compositions and methods for treating osteolytic disorders comprising MMP-14 binding proteins” (Dyax Corp., priority 2007, dated 2013)
